Results taken from patent US20110005523A1, “Pharmaceutical Polypeptide Dry Powder Aerosol Formulation and Method of Preparation” (published 2011).
Several values for one entry are separate records, joined by “and”; a condition that tells them apart may be missing. Equal entries are not always repeated.

How the values were obtained:
IL-4 receptor [1] = target: T1, IL-4 receptor (Homo sapiens (Human), UniProt P24394); assay: cell-based or functional assay
IL-4 receptor [2] = target: T1, IL-4 receptor; assay: cell-based or functional assay; remark: listed apart in the source

Functionality by Bioassay (specific activity), EC 50 (nM); stability batch, 1 month (5° C.) (IL-4 receptor [1]): 0.178 nM and 0.138 nM
Functionality by Bioassay (specific activity), EC 50 (nM); stability batch, 1 month (30° C./65%) (IL-4 receptor [1]): 0.191 nM and 0.184 nM
Functionality by Bioassay (specific activity), EC 50 (nM); stability batch, 3 month (5° C.) (IL-4 receptor [1]): 0.302 nM
Functionality by Bioassay (specific activity), EC 50 (nM); stability batch, 3 month (30° C./65%) (IL-4 receptor [1]): 0.3 nM
Functionality by Bioassay (specific activity), EC 50 (nM); stability batch, T0 (IL-4 receptor [1]): 0.246 nM and 0.263 nM
Functionality by Bioassay, Standard EC 50 (nM); reference standard (IL-4 receptor [1]): 0.264 nM and 0.194 nM and 0.305 nM
Mean EC50, nM (TF1 bioassay; 1-Spray Dry Powder) (IL-4 receptor [2]): 0.496 nM
Mean EC50, nM (TF1 bioassay; 2-Spray Dry Powder) (IL-4 receptor [2]): 0.518 nM
Mean EC50, nM (TF1 bioassay; 3-Spray Dry Powder) (IL-4 receptor [2]): 0.577 nM
Mean EC50, nM (TF1 bioassay; 4-Spray Dry Powder) (IL-4 receptor [2]): 0.555 nM
Mean EC50, nM (TF1 bioassay; mIL-4 Standard) (IL-4 receptor [2]): 0.524 nM
B1: human interleukin-4 mutein met-R121D/Y124D (ligand)
chain: MHKCDITLQEIIKTLNSLTEQKTLCTELTVTDIFAASKNTTEKETFCRAATVLRQFYSHHEKDTRCLGATAQQFHRHKQLIRFLKRLDRNLWGLAGLNSCPVKEANQSTLENFLERLKTIMDEKDSKCSS
